# Patent publication US11733246B2, “Compositions, imaging, and therapeutic methods targeting folate receptor 1 (FOLR1)” (Indi Molecular, Inc., priority 2020, dated 2023)
# Values joined by “and” are separate entries in the source; they are usually repeats but may differ in a detail not shown here. Identical values can stand only once. Numbered stars: 1 amine (or outer) side, 2 acyl side, 3 side chain; on linkers, the order of the positions; unused ones are H or OH. Bridge positions count the residues as written; N and C are the ends. Square brackets hold non-standard residues; d marks the D form. Triazole bridges read from a SMILES are 1,4-linked. Peptide text beside a SMILES is read from it. * marks the point of attachment. DOTA = O=C(O)CN1CCN(CC(=O)O)CCN(CC(=O)*)CCN(CC(=O)O)CC1; Pteroyl = Nc1nc2ncc(CNc3ccc(C(=O)*)cc3)nc2c(=O)[nH]1; Butanoyl(4-(4-MePh)) = Cc1ccc(CCCC(=O)*)cc1; Lys(N3) = [N-]=[N+]=NCCCC[C@H](N)C(=O)O; γGlu = O=C(O)[C@H](CCC(=O)[*:2])N[*:1]; AEEEA = NCCOCCOCCOCC(=O)O; Pra = C#CC[C@H](N)C(=O)O
# Columns and labels:
# OVCAR3 xenografts = experiment: 177Lu FOLR1 radioligand therapy in OVCAR3 xenograft model; assay type: in vivo, mouse
# Description: Water and food were provided ad libitum. […] Tumor growth was monitored by caliper measurements.
# OVCAR3 tumor bearing mice were used to study FOLR1-directed radioligand therapy (RLT) for treatment of ovarian cancer. Animals were administered a single dose of heterobiligand (vehicle control) or 111, 37, 18.5, 9.25, or 3.7 MBq [^177Lu]DOTA-labeled heterobiligand. Mice received the dose intravenously (i.v.) via the tail vein. To monitor the effect of the RLT, tumor size measurements were taken twice weekly and body weights were measured.
# The engraftment was allowed to expand until palpable tumor sizes ranging in size from 218-384 mm^3 were detected. […] These observed effects were consistant with radiation overdosing. […] The best response was observed using 9.25 MBq Lu-177 Heterobiligand (compound #2809).
# Single dose treatments at 18.5 MBq/nmol specific activity. OVCAR3 mouse model was used. 10^7 cell tumors were implanted in the mice one month before administration of ^177Lu-#6305. Five mice each were administered Cold #6305, 9.25 MBq Lu177-#6305, and 14.8 MBq Lu177-#6305, and two mice were administered 29.6 MBq Lu177-#6305. Tumor growth and body weight were then monitored.
# Female NSG mice were implanted subcutaneously with OVCAR3 cells. Once tumors reached volumes of 200 mm^3, the animals were treated with 177-Lu 7327. Three treatment arms of 9.25 MBq, 14.8 MBq, and 29.6 MBq were studied.
# Female NSG mice were implanted subcutaneously with human OVCAR3 (FOLR+) ovarian cancer cells. Once tumors reached volumes of 200 mm^3, the animals were treated with Indi ^177Lu-7327. One treatment arm of 74 MBq and a control group of 0 MBq were studied (FIGS. 41 and 38A). […] The second dose was administered 21 days following the first dose. Statistically significant differential between treated and control was reached 24 days post-injection (three days following the second dose) for the 74 MBq arm. P values (* for p≤0.05, ** for p≤0.01) were determined by ordinary one-way ANOVA with Tukey's multiple comparisons test.
# [1] = mouse, in vivo
# Description: At endpoint, mice were sacrificed and plasma and tissues (tumor, kidney, liver, lung, muscle) were collected. Plasma samples were assayed for urea and creatinine biomarkers indicative of nephrotoxicity. Tissue samples were fixed in 10% buffered formalin, transferred to 70% ethanol, and embedded in paraffin for immunohistochemistry.
# The heterobiligand dosed in these studies is Folate-hshta-PEG3-Lys(MPBA)-Lys(DOTA) (Compound #2809; SEQ ID NO:6)) labeled with ^177Lu. Plasma samples taken from tumor-bearing mice (at each dose) were assayed for biomarkers indicative of nephrotoxicity. These samples were compared to plasma taken from normal mice. Elevated urea levels in plasma could indicate kidney damage. Endogenous urea is converted to ammonia and carbon dioxide by the addition of urease. Berthelot's reagent reacts with the dissolved ammonia. The resulting green coloration can be used to back-calculate the amount of urea present in the original plasma sample.
# Mouse plasma samples (five mice each from the 0 MBq control group, 3.7 MBq group, and 9.25 MBq group) taken at endpoint and normal mouse plasma were evaluated in urea assays to gain information on renal function. […]
# In order to understand the toxicity-limiting tissues and organs, plasma was collected from the therapy studies and analyzed for blood urea nitrogen (BUN) and creatinine. […]
compound,measurement,setting,value
"Cc1ccc(CCCC(=O)NCCCC[C@H](NC(=O)COCCOCCOCCNC(=O)[C@@H]2CCCCn3cc(nn3)C[C@H](NC(=O)CC[C@H](NC(=O)c3ccc(NCc4cnc5nc(N)[nH]c(=O)c5n4)cc3)C(=O)O)C(=O)N[C@H](Cc3c[nH]cn3)C(=O)N[C@H](CO)C(=O)N[C@H](Cc3c[nH]cn3)C(=O)N[C@H]([C@H](C)O)C(=O)N[C@H](C)C(=O)N2)C(=O)N[C@@H](CCCCNC(=O)CN2CCN(CC(=O)O)CCN(CC(=O)O)CCN(CC(=O)O)CC2)C(N)=O)cc1 [^177Lu-#2809, metal not drawn] ({Pteroyl-γGlu}-[Pra][dH][dS][dH][dT][dA][Lys(N3)][AEEEA]K(Butanoyl(4-(4-MePh)))K(DOTA)-NH2; triazole 1-7)",Comments (deaths / survival),"OVCAR3 xenografts; ^177Lu dose 0 (peptide alone), 3 mice",Sacrificed on day 24
same,Comments (deaths / survival),"OVCAR3 xenografts; ^177Lu dose 0.1 mCi (3.7 MBq), 2 mice",Sacrificed on day 24
same,Comments (deaths / survival),"OVCAR3 xenografts; ^177Lu dose 0.25 mCi (9.25 MBq), 2 mice",Sacrificed on day 24
same,Comments (deaths / survival),"OVCAR3 xenografts; ^177Lu dose 0.5 mCi (18.5 MBq), 2 mice, listed as DOTA-Heterobiligand Albumin binder conjugate",1 mouse died on day 10 and 1 mouse died on day 13
same,Comments (deaths / survival),"OVCAR3 xenografts; ^177Lu dose 1 mCi (37 MBq), 2 mice",2 mice died on day 10
same,Comments (deaths / survival),"OVCAR3 xenografts; ^177Lu dose 3 mCi (111 MBq), 3 mice, listed as DOTA-Heterobiligand Albumin binder conjugate",1 mouse died on day 5 and 2 mice died on day 4
same,BUN level relative to normal mice,[1],1.5 times
